No end group written: not given here.
Assays:
fibronectin EDB [1] = biological target: T1, fibronectin EDB (Homo sapiens, UniProt P02751); assay: Kd (1/s)
T1 construct: After transformation of pET28b vector carrying fibronectin ED-B into BL21 cells; His-tag (N); made in house; host or cells: E. coli BL21
Text: (§1) Table printed on a drawing sheet, Fig. 11b
Head of the field: Kd (1/s)
(§2) The patent's description of the figure: FIG. 11a represents purification of the GST-BPB fusion protein.
(§3) FIG. 11b represents affinity of the GST-BPB to fibronectin EDB.
(§4) First copying reader's note: The name GST-BPB is printed only in Fig. 11a on this sheet, and the description gives Fig. 11b as its affinity to fibronectin EDB; the KD head says M but the cell prints nM.
(§5) Where the first naming reader finds the target: description_of_the_figure: FIG. 11b represents affinity of the GST-BPB to fibronectin EDB.

fibronectin EDB [2] = biological target: T1, fibronectin EDB; assay: Ka (1/Ms)
Text: as §1
Head of the field: Ka (1/Ms)
as §2, §3, §4, §5

T1 sequence (P02751 1271-1359): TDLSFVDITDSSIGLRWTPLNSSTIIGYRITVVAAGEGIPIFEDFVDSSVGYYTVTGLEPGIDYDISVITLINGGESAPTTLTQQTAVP

- Kd (fibronectin EDB [1]): 0.00347 s⁻¹
- Ka (1/Ms) (fibronectin EDB [2]): 1.22 e4 1/Ms
Substance: GST-BPB: fusion protein of glutathione S-transferase and BPB HCSSAVGSWTWENGKWTWKGIIRLEQ recognizing fibronectin EDB ({GST}-HCSSAVGSWTWENGKWTWKGIIRLEQ)

— patent US20120321697A1, “BPB-BASED CARGO DELIVERY SYSTEM” (GWANGJU INSTITUTE OF SCIENCE AND TECHNOLOGY, priority 2009, published 2012)
